How the values were obtained:
Experiment in all cases: ELISA, coated protein
BSA(ウシ血清アルブミン) = target: T1, BSA(ウシ血清アルブミン) (ウシ, UniProt P02769 25-607)
T1 construct: also called BSA

HSA(ヒト血清アルブミン) = target: T2, HSA(ヒト血清アルブミン) (ヒト, UniProt P02768 25-609)
T2 construct: also called HSA

Human-hemoglobin = Human-hemoglobin (human, UniProt P69905 2-142; P68871 2-147)

Measured: binding result

T1 sequence (P02769 25-607 limits assumed): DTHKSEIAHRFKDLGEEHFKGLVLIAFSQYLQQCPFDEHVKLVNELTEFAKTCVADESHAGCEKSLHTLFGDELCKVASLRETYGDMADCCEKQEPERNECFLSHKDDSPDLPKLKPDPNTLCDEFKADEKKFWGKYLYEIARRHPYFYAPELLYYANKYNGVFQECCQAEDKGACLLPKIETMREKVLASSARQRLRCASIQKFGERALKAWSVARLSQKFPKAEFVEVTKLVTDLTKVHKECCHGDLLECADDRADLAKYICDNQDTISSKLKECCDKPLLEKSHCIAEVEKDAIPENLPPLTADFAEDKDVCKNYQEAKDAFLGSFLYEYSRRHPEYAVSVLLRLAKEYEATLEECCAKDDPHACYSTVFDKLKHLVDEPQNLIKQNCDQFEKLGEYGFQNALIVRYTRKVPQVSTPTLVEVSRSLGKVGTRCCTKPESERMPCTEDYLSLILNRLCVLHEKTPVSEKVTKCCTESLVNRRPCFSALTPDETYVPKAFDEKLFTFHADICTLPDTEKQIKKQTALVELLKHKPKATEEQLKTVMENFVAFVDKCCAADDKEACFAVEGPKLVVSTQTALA
T2 sequence (P02768 25-609): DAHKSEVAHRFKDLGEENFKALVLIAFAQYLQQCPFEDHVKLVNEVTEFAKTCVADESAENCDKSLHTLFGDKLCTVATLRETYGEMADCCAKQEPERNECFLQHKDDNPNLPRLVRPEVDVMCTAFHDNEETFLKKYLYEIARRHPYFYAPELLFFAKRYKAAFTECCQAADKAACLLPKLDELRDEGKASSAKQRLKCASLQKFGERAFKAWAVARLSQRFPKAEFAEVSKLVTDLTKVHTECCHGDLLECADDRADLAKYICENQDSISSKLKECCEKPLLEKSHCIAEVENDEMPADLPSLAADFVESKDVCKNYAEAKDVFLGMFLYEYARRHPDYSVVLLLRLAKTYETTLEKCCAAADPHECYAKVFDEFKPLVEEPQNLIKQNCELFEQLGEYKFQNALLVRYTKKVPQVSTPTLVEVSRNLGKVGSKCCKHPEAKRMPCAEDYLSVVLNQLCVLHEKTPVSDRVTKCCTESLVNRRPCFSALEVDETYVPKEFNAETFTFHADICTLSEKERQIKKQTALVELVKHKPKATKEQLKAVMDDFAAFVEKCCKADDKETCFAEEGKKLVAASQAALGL
Sequence of Human-hemoglobin (P69905 2-142 limits assumed, chain 1 of 2): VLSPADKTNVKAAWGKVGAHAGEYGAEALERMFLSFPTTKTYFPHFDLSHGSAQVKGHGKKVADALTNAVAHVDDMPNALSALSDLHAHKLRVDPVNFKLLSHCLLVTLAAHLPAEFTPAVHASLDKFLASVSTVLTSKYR
Sequence of Human-hemoglobin (P68871 2-147 limits assumed, chain 2 of 2): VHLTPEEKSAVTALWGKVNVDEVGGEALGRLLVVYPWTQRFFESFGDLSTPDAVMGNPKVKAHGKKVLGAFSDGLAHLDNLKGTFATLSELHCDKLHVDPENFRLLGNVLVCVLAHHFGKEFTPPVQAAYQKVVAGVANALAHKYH

B1: モノクロナール抗体(抗体酵素)HA1−1 (antibody, V domains shown)
VH: QVQLQQSGPQLVRPGASVKISCKTSGYSFTTYWMHWVKQRPGQGLDWIGMIDPSESETRLNQKFKDKATLTVDKSSSTADMQLSSPTSEDSAVYYCASYEGYWGQGTLVTVS
VL: DIVMSQSPSSLAVSAGEKVTMSCKSSQSLLNSRTRKNYLAWYQQKPGQSPKLLIYWASARESGVPDRFTGSGSGTDFTLTISSVQAEDLAVYYCKQSYTLTWTFGGGTKVEIKR
notes: also called HA1-1; HA1−1抗体
no binding: all assays above

B2: モノクロナール抗体(抗体酵素)HA1−2 (antibody, V domains shown)
VH: QVQLQQSGPHLVRPGTSVRISCKASGYSFTSYWMHWVKQRPGQGLEWIGMIAPSDSETGLNQKFKDKATLTVDKSSSTAYIQLSSPTSEDSAVYYCASYEAYWGQGTLVTVS
VL: DIVMSQSPSSLAVSVGEKVTMSCKSSQSLLNSRARKNYLAWYQQKPGQSPKLLIYWASTRESGVPDRFTGSGSGTDFTLTISSVQAEDLAVYYCKQSYNVTWTFGGGTKLEIKR
notes: also called HA1-2; HA1−2抗体
no binding: all assays above

Source: JP2006347922A (dated 2006)
